Measurements published in patent US20240116985A1 (published 2024).
Starred links: 1 amine or outer side, 2 acyl side, 3 side chain; linkers in the order of their positions; H or OH if unused. Positions of bridges follow the written chain, without caps; N, C: chain ends. Non-standard residues stand in square brackets, D forms with d. Primed or numbered codes have the meaning given here. *: point of attachment. (4MePpzPip)GlnR = (S)-2-amino-5-(4-(4-methylpiperazin-1-yl)piperidin-1-yl)-5-oxopentanoic acid, CN1CCN(C2CCN(C(=O)CC[C@H](N[*:1])C(=O)[*:2])CC2)CC1; PyrS2″ = (S)-3-amino-1-((pent-4-en-1-yloxy)carbonyl)pyrrolidine-3-carboxylic acid (stapling residue), C=CCCCOC(=O)N1CC[C@@](N[*:1])(C(=O)[*:2])C1; (TfePpz)GlnR = (S)-2-amino-5-oxo-5-(4-(2,2,2-trifluoroethyl)piperazin-1-yl)pentanoic acid, O=C(CC[C@H](N[*:1])C(=O)[*:2])N1CCN(CC(F)(F)F)CC1; (RDMAPyr)GlnR = (S)-2-amino-5-((R)-3-(dimethylamino)pyrrolidin-1-yl)-5-oxopentanoic acid, CN(C)[C@@H]1CCN(C(=O)CC[C@H](N[*:1])C(=O)[*:2])C1; B5(5) = 2,2-bis(4-pentenyl)glycine, 2-amino-2-(pent-4-en-1-yl)hept-6-enoic acid (stitching residue), C=CCCCC(CCCC=C)(N[*:1])C(=O)[*:2]; TfeGA = (S)-2-amino-3-((carboxymethyl)(2,2,2-trifluoroethyl)amino)propanoic acid, O=C([C@H](CN(CC(=O)[*:3])CC(F)(F)F)N[*:1])[*:2]; PyrS2 = (S)-3-amino-1-((pent-4-en-1-yloxy)carbonyl)pyrrolidine-3-carboxylic acid, C=CCCCOC(=O)N1CC[C@@](N[*:1])(C(=O)[*:2])C1; PyrS1 = (S)-3-amino-1-((but-3-en-1-yloxy)carbonyl)pyrrolidine-3-carboxylic acid, C=CCCOC(=O)N1CC[C@@](N[*:1])(C(=O)[*:2])C1; B5(12) = 2-amino-2-(pent-4-en-1-yl)hept-6-enoic acid (two olefin side chains), C=CCCCC(CCCC=C)(N[*:1])C(=O)[*:2]; B5(19) = 2-amino-2-(pent-4-en-1-yl)hept-6-enoic acid (bis(4-pentenyl)glycine), C=CCCCC(CCCC=C)(N[*:1])C(=O)[*:2]; B5(3) = 2,2-bis(4-pentenyl)glycine (stitching residue), C=CCCCC(CCCC=C)(N[*:1])C(=O)[*:2]; Phe(3-COOH) = N[C@@H](Cc1cccc(C(=O)O)c1)C(=O)O; Phe(2-Cl) = N[C@@H](Cc1ccccc1Cl)C(=O)O; Bta = N[C@@H](Cc1csc2ccccc12)C(=O)O; Lys(iPr) = CC(C)NCCCC[C@H](N)C(=O)O; αAllylPro = C=CC[C@@]1(C(=O)O)CCCN1; tBuAla = CC(C)(C)C[C@H](N)C(=O)O; 3Thi = N[C@@H](Cc1ccsc1)C(=O)O; Thr(ol) = C[C@@H](O)[C@H](N)CO; Cba = N[C@@H](CC1CCC1)C(=O)O; PyrS2(4) = not defined here; S5 = C=CCCC[C@](C)(N)C(=O)O; Prolinol = OC[C@@H]1CCCN1*; TfeGA″ = not defined here; Aib = CC(C)(N)C(=O)O

T1: B-cat-Halo (beta-catenin HaloTag NanoBRET construct expressed in HEK293 cells) (UniProt P35222 1-781)
T1 sequence (looked up): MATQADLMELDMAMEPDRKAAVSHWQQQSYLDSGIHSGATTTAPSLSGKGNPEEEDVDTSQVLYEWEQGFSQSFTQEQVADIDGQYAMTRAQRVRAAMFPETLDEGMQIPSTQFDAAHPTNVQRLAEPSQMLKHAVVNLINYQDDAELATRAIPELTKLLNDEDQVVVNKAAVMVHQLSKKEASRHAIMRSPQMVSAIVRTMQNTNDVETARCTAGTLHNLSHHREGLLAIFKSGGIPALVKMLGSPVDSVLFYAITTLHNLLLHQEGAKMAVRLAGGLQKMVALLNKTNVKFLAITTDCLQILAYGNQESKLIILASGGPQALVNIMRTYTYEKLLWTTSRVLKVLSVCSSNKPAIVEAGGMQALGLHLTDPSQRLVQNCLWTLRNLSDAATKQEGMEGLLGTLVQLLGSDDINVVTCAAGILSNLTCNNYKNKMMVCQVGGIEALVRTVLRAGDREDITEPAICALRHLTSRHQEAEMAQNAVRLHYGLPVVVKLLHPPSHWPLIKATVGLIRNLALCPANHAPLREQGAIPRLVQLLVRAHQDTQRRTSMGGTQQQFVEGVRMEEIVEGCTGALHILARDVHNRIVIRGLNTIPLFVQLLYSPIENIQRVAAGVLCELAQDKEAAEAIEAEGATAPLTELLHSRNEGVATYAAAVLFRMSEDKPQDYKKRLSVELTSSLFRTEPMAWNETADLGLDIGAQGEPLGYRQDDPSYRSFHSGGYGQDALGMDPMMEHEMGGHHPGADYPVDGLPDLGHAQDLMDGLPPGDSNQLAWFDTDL

T2: B-cat-Halo (beta-catenin HaloTag NanoBRET construct expressed in HEK293 cells) (UniProt P35222 1-781, HaloTag NanoBRET 618 Ligand bound in the assay)
T2 sequence (looked up): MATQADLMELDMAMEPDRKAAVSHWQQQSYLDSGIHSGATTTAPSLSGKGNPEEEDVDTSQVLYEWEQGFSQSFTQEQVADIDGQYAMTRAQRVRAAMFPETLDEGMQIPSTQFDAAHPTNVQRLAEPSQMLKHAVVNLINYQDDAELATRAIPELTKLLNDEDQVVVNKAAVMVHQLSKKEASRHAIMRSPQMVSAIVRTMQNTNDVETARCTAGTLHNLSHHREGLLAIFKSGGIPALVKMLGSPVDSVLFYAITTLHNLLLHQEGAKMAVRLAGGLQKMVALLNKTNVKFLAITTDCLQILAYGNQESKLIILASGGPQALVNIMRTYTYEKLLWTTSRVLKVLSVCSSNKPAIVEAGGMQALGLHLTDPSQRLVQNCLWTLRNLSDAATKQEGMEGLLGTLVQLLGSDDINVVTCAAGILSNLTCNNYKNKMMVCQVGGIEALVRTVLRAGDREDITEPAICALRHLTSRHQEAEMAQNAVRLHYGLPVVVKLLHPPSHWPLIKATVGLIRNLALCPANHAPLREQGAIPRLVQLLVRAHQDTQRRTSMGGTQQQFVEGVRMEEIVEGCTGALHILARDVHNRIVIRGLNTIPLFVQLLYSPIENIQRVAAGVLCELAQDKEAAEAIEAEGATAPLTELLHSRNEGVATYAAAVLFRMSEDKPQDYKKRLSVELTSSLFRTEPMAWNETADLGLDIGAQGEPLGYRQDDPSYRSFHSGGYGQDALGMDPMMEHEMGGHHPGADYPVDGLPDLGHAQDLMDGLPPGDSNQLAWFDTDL


These binders were tested against T1, B-cat-Halo (beta-catenin HaloTag …) (assay: cell-based or functional assay).

Binder	NanoBRET Abs IC50 [µM]
Ac-[αAllylPro]D[tBuAla][B5(12)]D[Phe(3-COOH)]AAFL[PyrS2(4)][Phe(2-Cl)][Bta]N-NH2 (staple 1-4, 4-11; not fully specified; printed as Ac-PL3-Asp-Npg-B5-Asp-3COOHF-Ala-Ala-Phe-Leu-PyrS2-2C1F-BztA-Asn-NH2; reading uncertain) [I-1904]	4.2
Ac-[αAllylPro]D[tBuAla][B5(5)]D[Phe(3-COOH)]AAFL[PyrS2][Cba][Bta]S-NH2 (staple 1-4, 4-11; not fully specified; printed as Ac-PL3-Asp-Npg-B5-Asp-3COOHF-Ala-Ala-Phe-Leu-PyrS2-Cba-BztA-Ser-NH2) [I-1898]	10.9
Ac-[αAllylPro]D[tBuAla][B5(12)]D[Phe(3-COOH)]AAFL[PyrS2(4)][Phe(2-Cl)][Bta]S[Thr(ol)] (staple 1-4, 4-11; not fully specified; printed as Ac-PL3-Asp-Npg-B5-Asp-3COOHF-Ala-Ala-Phe-Leu-PyrS2-2C1F-BztA-Ser-Thro1; reading uncertain) [I-1905]	9.7
Ac-[αAllylPro]D[tBuAla][B5(12)]D[Phe(3-COOH)]KAFL[PyrS2(4)][3Thi][Bta]F-NH2 (staple 1-4, 4-11; not fully specified; printed as Ac-PL3-Asp-Npg-B5-Asp-3COOHF-Lys-Ala-Phe-Leu-PyrS2-3Thi-BztA-Phe-NH2; reading uncertain) [I-1911]	> 20
Ac-[αAllylPro]D[tBuAla][B5(12)]D[Phe(3-COOH)][Lys(iPr)]AFL[PyrS2(4)][3Thi][Bta]F-NH2 (staple 1-4, 4-11; not fully specified; printed as Ac-PL3-Asp-Npg-B5-Asp-3COOHF-iPrLys-Ala-Phe-Leu-PyrS2-3Thi-BztA-Phe-NH2; reading uncertain) [I-1909]	> 20
Ac-[αAllylPro]D[tBuAla][B5(12)]D[Phe(3-COOH)]AAFS[PyrS2(4)][Phe(2-Cl)][Bta]S-NH2 (staple 1-4, 4-11; not fully specified; printed as Ac-PL3-Asp-Npg-B5-Asp-3COOHF-Ala-Ala-Phe-Ser-PyrS2-2C1F-BztA-Ser-NH2; reading uncertain) [I-1903]	6.4
Ac-[αAllylPro]D[tBuAla][B5(5)]D[Phe(3-COOH)]SAFL[PyrS2][Phe(2-Cl)][Bta]S-NH2 (staple 1-4, 4-11; not fully specified; printed as Ac-PL3-Asp-Npg-B5-Asp-3COOHF-Ser-Ala-Phe-Leu-PyrS2-2C1F-BztA-Ser-NH2) [I-1901]	4.9
Ac-[αAllylPro]D[tBuAla][B5(12)]D[Phe(3-COOH)]AAFL[PyrS2(4)][Phe(2-Cl)][Bta]S-Prolinol (staple 1-4, 4-11; not fully specified; printed as Ac-PL3-Asp-Npg-B5-Asp-3COOHF-Ala-Ala-Phe-Leu-PyrS2-2C1F-BztA-Ser-Prool; reading uncertain) [I-1906]	15.5
Ac-[αAllylPro]D[tBuAla][B5(12)]D[Phe(3-COOH)]HAFL[PyrS2(4)][3Thi][Bta]F-NH2 (staple 1-4, 4-11; not fully specified; printed as Ac-PL3-Asp-Npg-B5-Asp-3COOHF-His-Ala-Phe-Leu-PyrS2-3Thi-BztA-Phe-NH2; reading uncertain) [I-1910]	13.8
Ac-[αAllylPro]D[tBuAla][B5(5)]D[Phe(3-COOH)]QAFL[PyrS2(4)][3Thi][Bta]F-NH2 (staple 1-4, 4-11; not fully specified; printed as Ac-PL3-Asp-Npg-B5-Asp-3COOHF-Gln-Ala-Phe-Leu-PyrS2-3Thi-BztA-Phe-NH2; reading uncertain) [I-1912]	11.5
Ac-[αAllylPro]D[tBuAla][B5(5)]D[Phe(3-COOH)]SAFL[PyrS2(4)][Phe(2-Cl)][Bta]S-NH2 (staple 1-4, 4-11; not fully specified; printed as Ac-PL3-Asp-Npg-B5-Asp-3COOHF-Ser-Ala-Phe-Leu-PyrS2-2C1F-BztA-Ser-NH2; reading uncertain) [I-1902]	7.7
Ac-[αAllylPro]D[tBuAla][B5(5)]DRAAFN[PyrS2][3Thi][Bta]Q-NH2 (staple 1-4, 4-11; not fully specified; printed as Ac-PL3-Asp-Npg-B5-Asp-Arg-Ala-Ala-Phe-Asn-PyrS2-3Thi-BztA-Gln-NH2) [I-1891]	> 20
Ac-[αAllylPro]D[tBuAla][B5(5)]DRAAFN[PyrS2][3Thi][Bta]Q-NH2 (staple 1-4, 4-11; not fully specified; printed as Ac-PL3-Asp-Npg-B5-Asp-Arg-Ala-Ala-Phe-Asn-PyrS2-3Thi-BztA-Gln-NH2) [I-1890]	> 20

The binders below were run against T2, B-cat-Halo (beta-catenin HaloTag …) (assay: cell-based or functional assay).

Binder	NanoBRET Abs IC50 [µM]
Ac-[αAllylPro]D[tBuAla][B5(3)]D[TfeGA]AAFL[PyrS2″][3Thi][Bta][(TfePpz)GlnR]-NH2 (staple 1-4, 4-11) [I-1803]	7.4
Ac-[αAllylPro]D[tBuAla][B5(3)]D[TfeGA]AAFL[PyrS2″][3Thi][Bta][(RDMAPyr)GlnR]-NH2 (staple 1-4, 4-11; not fully specified) [I-1804]	9.4
Ac-[αAllylPro]D[tBuAla][B5(3)]D[TfeGA]AAFL[PyrS2″][3Thi][Bta][(RDMAPyr)GlnR]-NH2 (staple 1-4, 4-11; not fully specified) [I-1805]	9.3
Ac-[αAllylPro]D[tBuAla][S5]DDAAFL[Aib][3Thi][Bta]Q-NH2 (staple 1-4; not fully specified; printed as Ac-PL3-Asp-Npg-S5-Asp-Asp-Ala-Ala-Phe-Leu-Aib-3Thi-BztA-Gln-NH2) [I-1807]	> 20
Ac-[αAllylPro]D[tBuAla][B5(3)]D[TfeGA]AAFL[PyrS2″][3Thi][Bta][(4MePpzPip)GlnR]-NH2 (staple 1-4, 4-11; not fully specified) [I-1801]	17.5
Ac-[αAllylPro]D[tBuAla][B5(19)]DDAAFN[PyrS1][3Thi][Bta]Q-NH2 (staple 1-4, 4-11; not fully specified; printed as Ac-PL3-Asp-Npg-B5-Asp-Asp-Ala-Ala-Phe-Asn-PyrS1-3Thi-BztA-Gln-NH2) [I-1813]	> 20
Ac-[αAllylPro]D[tBuAla][B5(3)]D[TfeGA″]AAFL[PyrS2″][3Thi][Bta][(4MePpzPip)GlnR]-NH2 (staple 1-4, 4-11; not fully specified; reading uncertain) [I-1802]	25.2
Ac-[αAllylPro]D[tBuAla][B5(3)]DDAAFL[PyrS2″][3Thi][Bta]Q-NH2 (staple 1-4, 4-11; also: staple olefins reduced to -CH2-CH2-) [I-1808]	14
Ac-[αAllylPro]D[tBuAla][B5(19)]DDAAFL[PyrS1][3Thi][Bta]Q-NH2 (staple 1-4, 4-11; not fully specified; printed as Ac-PL3-Asp-Npg-B5-Asp-Asp-Ala-Ala-Phe-Leu-PyrS1-3Thi-BztA-Gln-NH2) [I-1815]	> 20
